From the RNAGym collection of RNA variant scans (doi:10.1073/pnas.2313332121)
Variants at the floor of the assay were thinned out.

B1: TPR 5TU (parent)
chain: GGAUCUUCUCGAUCUAACAAAAAAGACAAAUCUGCCACAAAGCUUGAGAGCAUCUUCGGAUGCAGAGGCGGCAGCCUUCGGUGGCGCGAUAGCGCCAACGUUCUCAACUAUGACACGCAAAACGCGUGCUCCGUUGAAUGGAGUUUAUCAUG

Variants of: B1
Assay: polymerase ribozyme fitness, log enrichment relative to wild type (log ratio); higher = more active; in vitro selection for triplet polymerase activity
Procedure, shortened: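 Each subunit of a heterodimeric triplet polymerase ribozyme was represented by a PCR-built, transcribed mutant library that underwent triplicate single-round in vitro selection with frozen incubation at −7 °C. Extended constructs were recovered by gel excision, streptavidin-bead capture and RT-PCR, and Illumina sequencing of input and output libraries kept genotypes with ≥10 input reads and ≥1 read per output. Fitness is the logarithm of genotype enrichment relative to wild-type enrichment, from inverse-variance-weighted replicate averages, with a logarithm base of 2.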

Point of comparison: GGAUCUUCUCGGUCUAACAAAAAAGACAAGUCUGCCACAAAGCUUGAGAGCAUCUUCGGAUGCAGAGGCGGCAGCCUUCGGUGGCGCGAUAGCGCCAACGUUCUCAACUAUGACACGCAAAACGCGUGCUCCGUUGAAUGGAGUUUAUCAUG [A12G A30G], “polymerase ribozyme fitness (log ratio)” value -2.97. Against it:
- GGAUCUUCUCGCUCUAACAAAAAAGACAAAUCUGCCACAAAGCUUGAGAGCAACUUCUGAUGCAGAGGCGGCAGCCUUCGGUGGCGCGAUAGCGCCAAGGUUCUCAACUAUGACACGCAAAACGCGUGCUCCGUUGAAUGGAGUUUAUCACG [A12C U53A G58U C99G U151C] — lower, ≤ -4.2
- GGAUCUUCUCGGUCUAACAAAACAAACAAAUCUGCCACAAGGCUUGAGAGCAUCUUCGGAUGCAGAGGCGGCAGCCUUCGGUGGCGCGAUAGCCCUAACGUUCUCAACUAUGACAUGCAAAACGCGUGCUCCGUUGAAUGGACUUUAUCAUG [A12G A23C G25A A41G G94C C96U C116U G143C] — lower, ≤ -4.2
- GGAUCUUCUCGGUCUAACAAAAAGGACAAAUCUGACACAAAGCGUGAGACCAUCUUCGGAUGCAGAGGCGCCAGCCUUCGGUGGCGCGAUAGCGCCAACGUUCUCAACUAUGACACGCAAAACACGUGCUCCGUUGAAUGGAGUUUAUCAUG [A12G A24G C35A U44G G50C G71C G124A] — lower, ≤ -4.2
- GGAUCUUCUCGGUCUGACAAAAAAGACAAAUCUGCCACAAAGCGUGAGAGCAUCUUCGGAUGCAGAGGCGGCAGCCUUCGCUGACGCGAUAGCGUCAACGUUCUCAACUAUGACACGCAAAACGCGUGCUCCGUUGAAUGGAGAUCAUCAUG [A12G A16G U44G G81C G84A C95U U144A U146C] — lower, ≤ -4.2
- GGAUCUUCUCGGUCUAACAAAAUAGACAAAUCUGCCACAAAGCUUGAGAGCAUCUUCGGAUGCAGAGGCGGCAGCCUUCGGUGGGGCGAUAGCGCCAACGUUCUCAACUAUGACACGCAAAACGCGUGCUCCGUUGAAUGGAGUUUAUCGUG [A12G A23U C85G A150G] — lower, ≤ -4.2
- GGAUCUUCUCGCUCUAACAAAAAAGACAAAUCUGCCACAAAGCUUGAGAGCAUCUUCGGAUGCAGAGGCGGCAGCCUUCGGUGGCGCGAUAGCGCCAACGGUCUCAACUAUGACACGCAAAACGCGUGCUCCGUUGGAUGGAGUUUAUCAUG [A12C U101G A137G] — higher, -0.888
- GGAUCUUCUCGGUCUAACAAAGAAGACAAAUCUGCCACUAAGCUUGUGAGCAUCUUCGGAUGCAGAGGCGGCAGCCUUCGGUGGCGCGAUAUCGCCGACGGUCUCAACUAUGACACGCAAAACGCGUGCUCCGUUGAAUGGAGUUUAUCAUG [A12G A22G A39U A47U G92U A97G U101G] — lower, ≤ -4.2
- GGAUCUUCUCGGUCUAACAACAAAGACAAAUGUGCCACAAAGCUUGAGAUCAUCUUCGGAUGCAGAGGCGGCAGCCUUCGGUGGCGCGAUAGCGCCAACGUUCUCAACUAUGACACGCAAAACGGGUGCUCCGUUGAAUGGAGUUUAUCAUG [A12G A21C C32G G50U C125G] — lower, ≤ -4.2
- GGAUCUUCUCGCUCUAACAAAAAAGACAAAUCUGCCACAAAGCUUGAGAGCAUCGUCGGAUGCAGAGGCGGCAGCCUUCGGUGGCGCGAUAGCGCCGACGUUCUUAACUAUGACACGCAAAACGCGUGCUCCGUUGAAUGGAGUUUAUCAUG [A12C U55G A97G C105U] — within 0.2 log units, -3.12
- GGAUCUUCUCGCUCUAACAAAAAAGACAAAUCUGCCACAAAGCUUGAGAGCAUCUUCGGAGGCAGAGGCGGCAGGCUUCGGUGGCGCGAUAGCGCUAACGUUCUCAACUAUGACACGCAAAACGCGUGCUUCGUUGAAUUAAGUUUAUCAUG [A12C U61G C75G C96U C131U G140U G141A] — lower, ≤ -4.2
- GGAUCUUCUCGGUCUAACAAAAAUGACAAAUCUGCCACAAAGCUUGAGAGCAACUUCGGAUGCAGAGGCGGCAGCCUUCGGGGACGCGUUAGCGCCAACGUUCUCAACUAUGACACGCAAAACGCGUGCUCCGUUGAAUGGAGUUUAUCAUG [A12G A24U U53A U82G G84A A89U] — within 0.2 log units, -3.13
- GGAUCUUCUCGGUCUAACAAAACAGACAAAUCUGCCACAAAGCUUGCGAGCAUCUUCGGGUGCAGAGGCGGCAGCCUUCGGUGGCGCGAUAGUGCCAACGUUCUCAACUAUGACACGCAAAACGCGUGCUCCGUUGAAUGGAGUUUAUCAUG [A12G A23C A47C A60G C93U] — lower, ≤ -4.2
- GGAUCUUCUCGGUCUAACAAAAUAGACAAAUCUGUCACAAAGCUUGAGAGCAUCUUCGGAUGCAGAGGCGGCAGCAUUCGGUGGCGCGAUAGUGCCUACGUUCUCAACUAUGACAAGCAAAACGCGUGCUCCGUUGAAUGGAGUUUAUCAUG [A12G A23U C35U C76A C93U A97U C116A] — within 0.2 log units, -3.12
- GGAUCUUCUCGGUCUAACAAAAAUGACAAAUCUACCACAAAGCUUGAGAGCAUCUUCGGAUGCAGAGGCGGCAGCCUUCGGUGGCGCGAUAUCGCCAACGUUCUCAACUAUGACACGCAAAACGCCUGCUCCGUUGAAUGGAGUUUAUCAUG [A12G A24U G34A G92U G126C] — higher, -1.83
- GGAUCUUCUCGGUCUAACCGACAAGACGAGUCUGCCACAAAGCUUGAGAGCAUCUUAGAAUGCAGAGGCGGCAGCCUUCGGUGACGCGAUAGCGCCAACGGUCUCAACUAUGACUCGCAAAACGCGUGCUCCGUUUAAUGGAGUUUAUCAUG [A12G A19C A20G A22C A28G A30G C57A G59A G84A U101G A115U G136U] — lower, ≤ -4.2
- GGAUCUUCUCGCUCUAACAAAAAAGACAAAUCAGCCACAAAGCUUGACAGCAUCUUCGGAUGCAGAGGCGGCAGCCUUCGGUGGCGCGAUAGCGCCAACGUUCUCAACUAUGACACGCAAAACGCGGGCUCCGUUGAAUCGAGUUUAUCAUG [A12C U33A G48C U127G G140C] — lower, ≤ -4.2
- GGAUCUUCUCGGUCUAGCGAAAAAGACAAAUCUGCCACAAAGCUUGAGAGCAACAUCGGAUGCAGAGGCGGCAGCCUUCGUUGUCGCGAUAGCGCCAACGUUCUCAACUAUGACACUCAAAACGCGUGCUCCGUUGAAUGGAGUUUAUCAUG [A12G A17G A19G U53A U55A G81U G84U G117U] — lower, -4.04
- GGAUCUUCUCGGUCUAACUAAAAAGACAAAUCUGCCACAAUGCUUGAGACCAUCUUCGGAUGCAGAGGCGGCAGCCUUCGGUGGUGCGAUAGCGCCAACGUUCUCAACUAUGACACGCAAAACGCGUGCUCCAUUGAAUGGAGUUUACCAUG [A12G A19U A41U G50C C85U G133A U148C] — lower, ≤ -4.2
